Assay results published in paper PMC4561730 (Molecular and Cellular Biology, 2015).

Biological target: the molecule itself
Assay: negative-staining electron microscopy

B1: recombinant glutathione S-transferase (GST)-SAM protein (GST fusion of the mouse Bicc1 SAM domain) (domain or fragment, UniProt Q99MQ1 875-938, looked up)
chain: FKGSDLPELFSKLGLGKYTDVFQQQEIDLQTFLTLTDQDLKELGITTFGARRKMLLAISELSKN
- stoichiometry N: ~40 units
